Here are results for three substances from patent US20030203869A1.

For the test, the target named is purified HLA-A2.1 molecules (human). Nature of the test: inhibition of binding of a labeled reference peptide to purified HLA-A2.1.
In general, IC50 refers to the concentration needed to halve the response being measured. “HBV Core 18 (HBV core 18-27) CTL epitope peptide […] (peptide; other documents disagree on this pair)” returned an IC50 of 3 nM.

Turning to “HBV Pol 551-A (native HBV pol 551-559) CTL epitope peptide […] (peptide; other documents disagree on this pair)”, the IC50 came out at 200 nM. This IC50 is about 67-fold higher than that of the substance before.

Substance “HIV Pol 476 (HIV pol 476-484) CTL epitope peptide […] (peptide; other documents disagree on this pair)” showed an IC50 of 192 nM.
